Assay results: paper PMC4210868

Target: DDAGNRQP-fused pVIII protein (phage fd (fd-tet)) (UniProt P69539)
Experiment: tricine-SDS-PAGE

Substance: DDAGNRQP-fused pVIII protein (from UniProt P69539 24-73)
- stoichiometry N: 2
